{"source": "paper PMC7736794", "target": "T1, PrimPol (endogenous, OVCAR8), Q96LW4", "T1 chain": "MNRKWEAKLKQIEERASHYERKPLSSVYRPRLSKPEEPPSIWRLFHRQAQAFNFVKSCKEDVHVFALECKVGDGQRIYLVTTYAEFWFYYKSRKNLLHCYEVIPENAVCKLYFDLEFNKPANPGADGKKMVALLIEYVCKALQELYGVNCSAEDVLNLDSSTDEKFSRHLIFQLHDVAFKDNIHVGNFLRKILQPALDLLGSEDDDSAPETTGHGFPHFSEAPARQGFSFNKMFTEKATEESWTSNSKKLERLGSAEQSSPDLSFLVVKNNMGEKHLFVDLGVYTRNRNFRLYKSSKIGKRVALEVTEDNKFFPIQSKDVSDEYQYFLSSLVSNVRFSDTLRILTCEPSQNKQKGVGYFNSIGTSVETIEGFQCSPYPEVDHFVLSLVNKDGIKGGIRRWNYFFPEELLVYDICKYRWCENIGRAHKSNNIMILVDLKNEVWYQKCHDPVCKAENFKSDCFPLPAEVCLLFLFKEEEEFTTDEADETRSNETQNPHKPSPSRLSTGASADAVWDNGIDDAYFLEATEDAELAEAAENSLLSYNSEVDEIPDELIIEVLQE", "assay": "in situ proximity ligation assay (PLA)", "settings": "chain shown with the change, USP36 stably knock-down OVCAR8 cells, read off a plot", "data": [{"binder": "USP36-wild-type (WT), transfected in OVCAR8, Q9P275 K329R; K338R (protein) MPIVDKLKEALKPGRKDSADDGELGKLLASSAKKVLLQKIEFEPASKSFSYQLEALKSKYVLLNPKTEGASRHKSGDDPPARRQGSEHTYESCGDGVPAPQKVLFPTERLSLRWERVFRVGAGLHNLGNTCFLNATIQCLTYTPPLANYLLSKEHARSCHQGSFCMLCVMQNHIVQAFANSGNAIKPVSFIRDLKKIARHFRFGNQEDAHEFLRYTIDAMQKACLNGCAKLDRQTQATTLVHQIFGGYLRSRVKCSVCKSVSDTYDPYLDVALEIRQAANIVRALELFVKADVLSGENAYMCAKCKKKVPASKRFTIHRTSNVLTLSLRRFANFSGGRITKDVGYPEFLNIRPYMSQNNGDPVMYGLYAVLVHSGYSCHAGHYYCYVKASNGQWYQMNDSLVHSSNVKVVLNQQAYVLFYLRIPGSKKSPEGLISRTGSSSLPGRPSVIPDHSKKNIGNGIISSPLTGKRQDSGTMKKPHTTEEIGVPISRNGSTLGLKSQNGCIPPKLPSGSPSPKLSQTPTHMPTILDDPGKKVKKPAPPQHFSPRTAQGLPGTSNSNSSRSGSQRQGSWDSRDVVLSTSPKLLATATANGHGLKGNDESAGLDRRGSSSSSPEHSASSDSTKAPQTPRSGAAHLCDSQETNCSTAGHSKTPPSGADSKTVKLKSPVLSNTTTEPASTMSPPPAKKLALSAKKASTLWRATGNDLRPPPPSPSSDLTHPMKTSHPVVASTWPVHRARAVSPAPQSSSRLQPPFSPHPTLLSSTPKPPGTSEPRSCSSISTALPQVNEDLVSLPHQLPEASEPPQSPSEKRKKTFVGEPQRLGSETRLPQHIREATAAPHGKRKRKKKKRPEDTAASALQEGQTQRQPGSPMYRREGQAQLPAVRRQEDGTQPQVNGQQVGCVTDGHHASSRKRRRKGAEGLGEEGGLHQDPLRHSCSPMGDGDPEAMEESPRKKKKKKRKQETQRAVEEDGHLKCPRSAKPQDAVVPESSSCAPSANGWCPGDRMGLSQAPPVSWNGERESDVVQELLKYSSDKAYGRKVLTWDGKMSAVSQDAIEDSRQARTETVVDDWDEEFDRGKEKKIKKFKREKRRNFNAFQKLQTRRNFWSVTHPAKAASLSYRR", "values": [{"measurement": "response (PLA puncta / cell)", "setting": "HU (10 mM) for 4 h, parent: est. 17", "value": 15}, {"measurement": "response (PLA puncta / cell)", "setting": "untreated (Ctrl), parent: est. 11", "value": 15}]}]}
